Tests used:
[1] = target: Copalyl diphosphate synthase from Penicillium fellutanum (PfCPS), full-length wild type (Penicillium fellutanum); assay: SEC
[2] = target: Copalyl diphosphate synthase from Penicillium fellutanum (PfCPS), full-length wild type (Penicillium fellutanum); assay: cryo-EM structure

“Copalyl diphosphate synthase from Penicillium fellutanum (PfCPS), full-length wild type (enzyme)” showed a stoichiometry N [1] of 6 and a stoichiometry N [2] of 6.

From paper PMC10939776
